The results in this text go back to patent publication US20240398911A1.

The target of test [1] is SARS-CoV2 RBD-8h (Delta) (SARS-CoV-2 (Delta)) (UniProt P0DTC2). Put plainly: BLI, IgG protein immobilized, monomeric RBD-8h analyte. Background: BLI is a label-free optical method that tracks binding on a fibre tip over time.
For test [2], the target named is SARS-CoV2 RBD-8h (Gamma) (SARS-CoV-2 (Gamma)) (UniProt P0DTC2). The test is described as above.

As a reminder, the Kd is the equilibrium constant for the complex coming apart. A high value points to weaker binding. One may read the koff as the first-order rate constant of dissociation. Read a high koff as fast dissociation. As a reminder, the kon is a measure of how fast the partners come together. Low values mean slow association, high ones fast association. Regarding VIR-7831 (sotrovimab) (antibody), in test [1], the Kd was less than 0.1 nM, the koff was less than 1e-07 s⁻¹ and the association rate constant (kon) was determined as 100000 M⁻¹ s⁻¹. For the same substance, the kon in test [2] was found to be 97000 M⁻¹ s⁻¹.
